The target in the test is APOBEC3G, wild type (human), Q9HC16. The test is described as follows: optical tweezers (single-molecule ssDNA extension); self-association of A3G bound to force-melted lambda-DNA (ssDNA) held at 80 pN; 10 to 200 nM A3G flowed in; 10 mM HEPES, 50 mM Na+, pH 7.5, 21 °C; two-exponential fit of incubation curves, k2 = rate of oligomer formation at saturating binding. As to conditions: remark: other sources report otherwise.

B1: APOBEC3G, wild type, Q9HC16 1-384 (enzyme)
chain: MKPHFRNTVERMYRDTFSYNFYNRPILSRRNTVWLCYEVKTKGPSRPPLDAKIFRGQVYSELKYHPEMRFFHWFSKWRKLHRDQEYEVTWYISWSPCTKCTRDMATFLAEDPKVTLTIFVARLYYFWDPDYQEALRSLCQKRDGPRATMKIMNYDEFQHCWSKFVYSQRELFEPWNNLPKYYILLHIMLGEILRHSMDPPTFTFNFNNEPWVRGRHETYLCYEVERMHNDTWVLLNQRRGFLCNQAPHKHGFLEGRHAELCFLDVIPFWKLDLDQDYRVTCFTSWSPCFSCAQEMAKFISKNKHVSLCIFTARIYDDQGRCQEGLRTLAEAGAKISIMTYSEFKHCWDTFVDHQGCPFQPWDGLDEHSQDLSGRLRAILQNQEN
B1 came in with a k2 (rate of oligomer formation on ssDNA) of 0.007 s⁻¹.

The values above are taken from article PMC5605669.
